Laboratory results reported in US20170210813A1 (Regeneron, published 2017).
Positions count from the first letter of the chain named. In names and notes the source's numbering stands. Blank lines part the entries; values can stand above or below the binder they belong to.

Tests used:
human PDGFRb.hFc [1] = biological target: T1, human PDGFRb.hFc (human); assay: SPR, mAb captured, 37 C
T1 construct: Soluble dimeric construct with human Fc; also called hPDGFRb.hFc
Protocol: (§1) Antibodies, expressed as either mouse Fc (prefix H1M; H2M) or human Fc (prefix H4H), were captured on their respective anti-Fc sensor surfaces (Mab capture format). […] Kinetic association (kₐ) and dissociation (kd) rate constants were determined by processing and fitting the data to a 1:1 binding model using Scrubber 2.0 curve fitting software.

hPDGFRb.mmh [2] = biological target: T2, hPDGFRb.mmh (human, UniProt P09619 33-531); assay: SPR, mAb captured, 37 C
T2 construct: Soluble monomeric construct; also called soluble human PDGFR-beta.mmh
T2 sequence (P09619 other isoform, or with tags, fused parts or gaps): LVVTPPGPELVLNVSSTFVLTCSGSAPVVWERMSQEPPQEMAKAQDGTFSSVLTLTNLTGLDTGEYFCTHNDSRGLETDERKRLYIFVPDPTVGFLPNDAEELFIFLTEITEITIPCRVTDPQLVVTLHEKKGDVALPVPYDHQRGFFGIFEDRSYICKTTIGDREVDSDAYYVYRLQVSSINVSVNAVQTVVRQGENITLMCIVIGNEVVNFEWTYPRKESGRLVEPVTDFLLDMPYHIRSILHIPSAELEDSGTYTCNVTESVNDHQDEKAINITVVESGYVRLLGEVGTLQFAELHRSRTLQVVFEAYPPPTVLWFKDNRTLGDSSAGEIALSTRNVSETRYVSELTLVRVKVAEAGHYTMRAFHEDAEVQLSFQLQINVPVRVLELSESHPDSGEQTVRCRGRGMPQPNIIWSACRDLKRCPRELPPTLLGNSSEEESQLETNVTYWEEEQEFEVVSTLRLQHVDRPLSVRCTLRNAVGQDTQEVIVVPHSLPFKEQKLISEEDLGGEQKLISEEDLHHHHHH
Protocol: as §1

[3] = biological target: T3, Macaca fascicularis PDGFRb.mmh (Macaca fascicularis); assay: SPR, mAb captured, 37 C
T3 construct: Soluble monomeric construct; also called mfPDGFRb.mmh
T3 chain: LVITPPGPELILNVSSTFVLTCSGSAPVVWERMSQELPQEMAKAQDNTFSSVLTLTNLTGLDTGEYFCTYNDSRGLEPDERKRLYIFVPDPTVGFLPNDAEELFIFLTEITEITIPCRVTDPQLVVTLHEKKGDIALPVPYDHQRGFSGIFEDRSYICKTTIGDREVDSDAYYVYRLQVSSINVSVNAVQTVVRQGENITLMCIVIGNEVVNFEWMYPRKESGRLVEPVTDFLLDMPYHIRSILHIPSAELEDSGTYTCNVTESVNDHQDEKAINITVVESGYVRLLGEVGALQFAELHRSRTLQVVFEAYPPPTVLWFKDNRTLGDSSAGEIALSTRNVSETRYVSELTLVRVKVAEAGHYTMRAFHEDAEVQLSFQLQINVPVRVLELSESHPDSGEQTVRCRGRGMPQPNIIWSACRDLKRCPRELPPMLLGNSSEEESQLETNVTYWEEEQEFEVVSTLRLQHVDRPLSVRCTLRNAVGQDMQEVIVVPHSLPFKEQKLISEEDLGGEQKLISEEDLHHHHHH
Protocol: as §1

human PDGFRb.hFc [4] = biological target: T1, human PDGFRb.hFc; assay: SPR, mAb captured, 25 C
Protocol: as §1

hPDGFRb.mmh [5] = biological target: T2, hPDGFRb.mmh; assay: SPR, mAb captured, 25 C
Protocol: as §1

[6] = biological target: T3, Macaca fascicularis PDGFRb.mmh; assay: SPR, mAb captured, 25 C
Protocol: as §1

[7] = biological target: full length human PDGFR-beta on HEK293 cells (human, UniProt P09619 33-1106); assay: cell-based or functional assay
Chain of full length human PDGFR-beta on HEK293 cells (P09619 33-1106 limits assumed): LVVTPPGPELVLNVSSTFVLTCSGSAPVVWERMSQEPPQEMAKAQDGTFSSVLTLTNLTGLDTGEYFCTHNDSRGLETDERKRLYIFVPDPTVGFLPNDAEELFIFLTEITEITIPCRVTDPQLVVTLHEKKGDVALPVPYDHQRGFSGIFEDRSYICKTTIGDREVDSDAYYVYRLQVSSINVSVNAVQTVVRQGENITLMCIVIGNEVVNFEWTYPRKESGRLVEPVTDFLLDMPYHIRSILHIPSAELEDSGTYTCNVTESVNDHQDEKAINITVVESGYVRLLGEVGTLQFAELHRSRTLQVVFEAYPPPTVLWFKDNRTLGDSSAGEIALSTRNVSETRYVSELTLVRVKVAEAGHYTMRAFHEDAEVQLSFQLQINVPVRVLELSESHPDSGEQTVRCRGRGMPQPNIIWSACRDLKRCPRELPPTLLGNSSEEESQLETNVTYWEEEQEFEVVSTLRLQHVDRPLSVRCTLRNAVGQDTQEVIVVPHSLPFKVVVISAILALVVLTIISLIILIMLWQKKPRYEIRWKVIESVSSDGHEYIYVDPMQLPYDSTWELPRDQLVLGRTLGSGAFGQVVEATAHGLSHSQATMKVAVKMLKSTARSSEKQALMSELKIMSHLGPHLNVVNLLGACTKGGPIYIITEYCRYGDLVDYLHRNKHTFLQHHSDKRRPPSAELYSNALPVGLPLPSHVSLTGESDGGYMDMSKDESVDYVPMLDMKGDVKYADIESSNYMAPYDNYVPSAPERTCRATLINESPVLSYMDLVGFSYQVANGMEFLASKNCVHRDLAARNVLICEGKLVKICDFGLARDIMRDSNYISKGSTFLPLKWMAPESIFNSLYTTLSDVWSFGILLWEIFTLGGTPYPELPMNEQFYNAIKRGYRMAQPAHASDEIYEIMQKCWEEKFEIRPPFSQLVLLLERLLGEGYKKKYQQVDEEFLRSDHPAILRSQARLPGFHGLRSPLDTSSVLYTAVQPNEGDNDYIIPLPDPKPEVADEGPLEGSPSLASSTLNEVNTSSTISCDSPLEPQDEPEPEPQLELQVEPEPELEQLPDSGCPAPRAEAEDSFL

hPDGFRb.mmh [8] = biological target: T2, hPDGFRb.mmh; assay: blocking ELISA, biot-hPDGFRb.mmh to coated PDGF-BB
Protocol: The equilibrated PDGFR-beta/antibody solutions were added to ligand-coated plates, allowed to incubate for 1 hr, and washed. Levels of bound biot-hPDGFR-beta.mmh were detected using HRP conjugated streptavidin. Data were analyzed using Prism software and IC₅₀ values were calculated as the amount of antibody required to achieve 50% reduction of hPDGFR-beta-mmh bound to ligand. Maximum blocking values were also calculated and reflect the ability of the antibody to block relative to baseline. The absorbance measured at the constant amount of 250 pM biot-hPDGFR-beta-mmh on the dose curve is defined as 0% blocking and the absorbance with no added PDGFR-beta is defined as 100%. The absorbance of the wells containing the highest antibody concentration determined the maximum blocking percent.

Kd (human PDGFRb.hFc [1]): 3.1 nM
koff (human PDGFRb.hFc [1]): 0.000793 s⁻¹
kon (human PDGFRb.hFc [1]): 250000 M⁻¹ s⁻¹
t1/2 (human PDGFRb.hFc [1]): 15 min
Kd (hPDGFRb.mmh [2]): 13.8 nM
koff (hPDGFRb.mmh [2]): 0.00624 s⁻¹
kon (hPDGFRb.mmh [2]): 452000 M⁻¹ s⁻¹
t1/2 (hPDGFRb.mmh [2]): 2 min
Kd [3]: 31.6 nM
koff [3]: 0.00512 s⁻¹
kon [3]: 162000 M⁻¹ s⁻¹
t1/2 [3]: 2 min
Kd (human PDGFRb.hFc [4]): 1.17 nM
koff (human PDGFRb.hFc [4]): 0.00026 s⁻¹
kon (human PDGFRb.hFc [4]): 222000 M⁻¹ s⁻¹
t1/2 (human PDGFRb.hFc [4]): 44 min
Kd (hPDGFRb.mmh [5]): 3.68 nM
koff (hPDGFRb.mmh [5]): 0.00104 s⁻¹
kon (hPDGFRb.mmh [5]): 281000 M⁻¹ s⁻¹
t1/2 (hPDGFRb.mmh [5]): 11 min
Kd [6]: 6.39 nM
koff [6]: 0.00117 s⁻¹
kon [6]: 182000 M⁻¹ s⁻¹
t1/2 [6]: 10 min
IC50, blocking PDGF-BB (250 pM) activation, SRE-luciferase [7]: 4.5e-10 M
IC50, blocking PDGF-DD (400 pM) activation, SRE-luciferase [7]: 5.8e-10 M
% Maximum Blocking (hPDGFRb.mmh [8]): 84%
IC50 (hPDGFRb.mmh [8]): 0.18 nM
B1: H4H3096S (antibody, human IgG4, V domains shown)
VH: EVQLVQSGGSLVQPGGSLRLSCTASGFTFSSYWMSWVRQAPGKGLEWVANIQQDESEKYYVDSVKGRFSISRDNAKKSLYLQMNSLRAEDTAVYFCARDLVPPRQGDYYHYFGMDVWGQGTLVTVSS
VL: AIRMTQSPSTLSASVGDRVTITCRASQSISDWLAWYQQKPGKAPNLLIYKASSLESGVPSRFSGSGSGTEFTLTISGLQPDDFATYYCQQYNSYSRTFGQGTKLEIKR
notes: human IgG4 Fc (H4H prefix)

Kd (human PDGFRb.hFc [1]): 3 nM
koff (human PDGFRb.hFc [1]): 0.000824 s⁻¹
kon (human PDGFRb.hFc [1]): 280000 M⁻¹ s⁻¹
t1/2 (human PDGFRb.hFc [1]): 14 min
Kd (hPDGFRb.mmh [2]): 11.3 nM
koff (hPDGFRb.mmh [2]): 0.00354 s⁻¹
kon (hPDGFRb.mmh [2]): 314000 M⁻¹ s⁻¹
t1/2 (hPDGFRb.mmh [2]): 3 min
Kd [3]: 14.4 nM
koff [3]: 0.00416 s⁻¹
kon [3]: 289000 M⁻¹ s⁻¹
t1/2 [3]: 3 min
Kd (human PDGFRb.hFc [4]): 0.91 nM
koff (human PDGFRb.hFc [4]): 0.000225 s⁻¹
kon (human PDGFRb.hFc [4]): 247000 M⁻¹ s⁻¹
t1/2 (human PDGFRb.hFc [4]): 51 min
Kd (hPDGFRb.mmh [5]): 3.19 nM
koff (hPDGFRb.mmh [5]): 0.000784 s⁻¹
kon (hPDGFRb.mmh [5]): 246000 M⁻¹ s⁻¹
t1/2 (hPDGFRb.mmh [5]): 15 min
Kd [6]: 5.2 nM
koff [6]: 0.000932 s⁻¹
kon [6]: 180000 M⁻¹ s⁻¹
t1/2 [6]: 12 min
IC50, blocking PDGF-BB (250 pM) activation, SRE-luciferase [7]: 5.8e-10 M
IC50, blocking PDGF-DD (400 pM) activation, SRE-luciferase [7]: 5.1e-10 M
% Maximum Blocking (hPDGFRb.mmh [8]): 86%
IC50 (hPDGFRb.mmh [8]): 0.16 nM
B2: H4H3105S (antibody, human IgG4, V domains shown)
VH: B1 VH with E1Q, Q6E, S21A, S56N, A88V, L122T
VL: DIQLTQSPSTLSASVGDRVTITCRASQSISDWLAWYQQKPGKAPNLLIYKASTLESGVPSRFSGSGSGTEFTLTISSLQPDDFATYYCQQYNSYSRTFGQGTKVEIK
notes: human IgG4 Fc (H4H prefix)

Kd (human PDGFRb.hFc [1]): 2.08 nM
koff (human PDGFRb.hFc [1]): 0.000741 s⁻¹
kon (human PDGFRb.hFc [1]): 356000 M⁻¹ s⁻¹
t1/2 (human PDGFRb.hFc [1]): 16 min
Kd (hPDGFRb.mmh [2]): 8.49 nM
koff (hPDGFRb.mmh [2]): 0.00335 s⁻¹
kon (hPDGFRb.mmh [2]): 394000 M⁻¹ s⁻¹
t1/2 (hPDGFRb.mmh [2]): 3 min
Kd [3]: 9.26 nM
koff [3]: 0.00345 s⁻¹
kon [3]: 372000 M⁻¹ s⁻¹
t1/2 [3]: 3 min
Kd (human PDGFRb.hFc [4]): 0.686 nM
koff (human PDGFRb.hFc [4]): 0.000215 s⁻¹
kon (human PDGFRb.hFc [4]): 314000 M⁻¹ s⁻¹
t1/2 (human PDGFRb.hFc [4]): 54 min
Kd (hPDGFRb.mmh [5]): 2.49 nM
koff (hPDGFRb.mmh [5]): 0.000744 s⁻¹
kon (hPDGFRb.mmh [5]): 299000 M⁻¹ s⁻¹
t1/2 (hPDGFRb.mmh [5]): 16 min
Kd [6]: 4.65 nM
koff [6]: 0.000882 s⁻¹
kon [6]: 190000 M⁻¹ s⁻¹
t1/2 [6]: 13 min
IC50, blocking PDGF-BB (250 pM) activation, SRE-luciferase [7]: 7.4e-10 M
IC50, blocking PDGF-DD (400 pM) activation, SRE-luciferase [7]: 5.2e-10 M
% Maximum Blocking (hPDGFRb.mmh [8]): 86%
IC50 (hPDGFRb.mmh [8]): 0.17 nM
B3: H4H3106S (antibody, human IgG4, V domains shown)
VH: QVQLVESGGGLVQPGGSLRLSCAASGFTFSSYWMSWVRQVPGKGLEWVANMNQDGTEKYYVDSVKGRLTISRENVKNSLYLQMNGLRAEDTAVYYCARDLVPPRQGDYYYYFGMDVWGHGTMVTVSS
VL: B2 VL with D1A, L4M, R18I, N45K, Y49F, T53S, E70D, E105D
notes: human IgG4 Fc (H4H prefix)

Kd (human PDGFRb.hFc [1]): 0.76 nM
koff (human PDGFRb.hFc [1]): 0.000319 s⁻¹
kon (human PDGFRb.hFc [1]): 420000 M⁻¹ s⁻¹
t1/2 (human PDGFRb.hFc [1]): 36 min
Kd (hPDGFRb.mmh [2]): 1.42 nM
koff (hPDGFRb.mmh [2]): 0.00147 s⁻¹
kon (hPDGFRb.mmh [2]): 1.04e+06 M⁻¹ s⁻¹
t1/2 (hPDGFRb.mmh [2]): 8 min
Kd [3]: 2.86 nM
koff [3]: 0.00164 s⁻¹
kon [3]: 574000 M⁻¹ s⁻¹
t1/2 [3]: 7 min
Kd (human PDGFRb.hFc [4]): 0.39 nM
koff (human PDGFRb.hFc [4]): 0.000118 s⁻¹
kon (human PDGFRb.hFc [4]): 300000 M⁻¹ s⁻¹
t1/2 (human PDGFRb.hFc [4]): 98 min
Kd (hPDGFRb.mmh [5]): 0.89 nM
koff (hPDGFRb.mmh [5]): 0.000455 s⁻¹
kon (hPDGFRb.mmh [5]): 509000 M⁻¹ s⁻¹
t1/2 (hPDGFRb.mmh [5]): 25 min
Kd [6]: 1.73 nM
koff [6]: 0.000489 s⁻¹
kon [6]: 283000 M⁻¹ s⁻¹
t1/2 [6]: 24 min
IC50, blocking PDGF-BB (250 pM) activation, SRE-luciferase [7]: 4.1e-09 M
IC50, blocking PDGF-DD (400 pM) activation, SRE-luciferase [7]: 4.4e-09 M
% Maximum Blocking (hPDGFRb.mmh [8]): 30%
B4: H4H3102S (antibody, human IgG4, V domains shown)
VH: EVQLVESGGDLVHPGRSLRLSCVASGFTFDDYTMHWVRQAPGKGLEWVSAISWNGDNINYAGSVKGRFTISRDNAKNSLYLEMNSLRVEDTAFYYCAKGRGFSFGFNYLGQGTMVTVSS
VL: AIRMTQSPSSLSASVGDRVTITCRASQDISNYLAWFQQQPGKAPKSLIYATSSLNSGVPSKFSGSGSGTDFTLTISSLQPEDFATYYCQQYKSYPLTFGGGTKVEIK
notes: human IgG4 Fc (H4H prefix)
